Reference: the nanobody polyreactivity screen of Harvey et al. (2022)

Experiment: yeast display, Sf9 membrane polyspecificity reagent, FACS + sequencing; frameworks hold sequencing errors
Method in brief: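 Genes from sorted yeast were amplified by colony PCR, read by MiSeq 2 × 250 sequencing and filtered on CDR length. These cells carried a synthetic nanobody library in Saccharomyces cerevisiae BJ5465 and were sorted by FACS into low and high (top ~1%) gates on anti-HA and streptavidin fluorescence. Polyreactivity is labelled according to the gate of origin.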

| Sequence | polyreactivity (PSR sort gate) |
| --- | --- |
| QVQLVESGGGLVQAGGSLRLSCAASGSTFQFYAMGWYRQAPGKEREFVAAITTRSGSTYYADSVKGRFTISRDNAKNTVYLQMNSLKPEDTAVYYCAAYIYGHSSDSVRYEYWGQGTQVTVSS | low polyreactivity |
| QVQLVESGGGLVQAGGSLRLSCAASGSTFQGYAMGWYRQAPGNERELVAAISRRGGSTYYADSVKGRFTISRDNAKNTVYFQKNSLKPEDTAVYYCNAVVRTIVLYYWGQGTQVTVSS | high polyreactivity |
| QVQLVESGGGLVQAGGSLRLSCAASGSTFQLYAMGWYRQAPGKERELVAAISGIGDSTYYADSVKGRFTISRDNAKNTVYLQMNSLKPEDTAVYYCAREFSDGLSGKFDYWGQGTQVTVSS | low polyreactivity |
| QVQLVESGGGLVQAGGSLRLSCAASGSTFQPYAMGWYRQAPGKEREFVATISGSAGSTYYADSVKGRFKISRDNAKNTVYLLMNSLKPEDTAVYYCNADSGWFGYDYWGQGTQVTVSS | low polyreactivity |
| QVQLVESGGGLVQAGGSLRLSCAASGSTFQPYTMGWYRQAPGTERELVAAITGRGGSTYYADSVKGRFTISRDNAKNTVYLQMNSLKPEDTAVYYCAAGAYRRNKSDYYYWGQGTQVTVSS | low polyreactivity |
| QVQLVESGGGLVQAGGSLRLSCAASGSTFQRYAMGWYRQAPGKERELVAAITSGGSTYYADSVKGRFTISRDNAKNTVYLQMNSQKPEDTAVYYCNAAWFYRYGYWGQGTQVTVSS | high polyreactivity |
| QVQLVESGGGLVQAGGSLRLSCAASGSTFQSNAMGWYRQAPGKERELVAAISSSAGTTFYADSVKGRFTISRDNAKNTVYLQMNSLKPEDTAVYYCAKKDFYFAPSPGYYRSRDYWGQGTQVTVSS | low polyreactivity |
| QVQLVESGGGLVQAGGSLRLSCAASGSTFQSYAMGWYRQAPGKERELVAAISFSGGSTYYADSVKGRFTNSRDNSKNTVYLQMNSLIPEDTAVYYCAKRGWVYFHGYDYWGQGTQVTVSS | low polyreactivity |
| QVQLVESGGGLVQAGGSLRLSCAASGSTFQSYAMGWYRQAPGKERELVAGITSGDSTNYADSVKGRFTISRDNAKNTVYLQMNSLKPEDTAVYYCNAVTQARYYYWGQGTQVTVSS | low polyreactivity |
| QVQLVESGGGLVQAGGSLRLSCAASGSTFQTYAMGWYRQAPGKERELVAAISFNGGSTYYADSVKGRFTISRDNAKNTVYLQMNSLKPEDTAVYYCAVEYTWASALYDGRHDYWGQGTQVTVSS | high polyreactivity |
| QVQLVESGGGLVQAGGSLRLSCAASGSTFQTYAMGWYRQAPGKERELVAAISRRSGSTYYADSVKGRFTISRDNAKNTVYLQMNSLKPEDTAVYYCAARYVSRRFLGYYYWGQGTQVTVSS | high polyreactivity |
| QVQLVESGGGLVQAGGSLRLSCAASGSTFQTYVMGWYRQAPGKERELVAAISSGGSTNYADSVKGRFTISRDNAKNTVYLQMNSLKPEDTAVYYCAKRWPYFRRGKDGYWGQGTQVTVSS | low polyreactivity |
| QVQLVESGGGLVQAGGSLRLSCAASGSTFQVYGMGWYRQAPGKERELVAAISRSGGRTYYADSVKGRFTISRDNAKNTVYLQMNSLKPEDTAVYYCAKTYQTTTSKSGYYYWGQGTQVTVSS | high polyreactivity |
| QVQLVESGGGLVQAGGSLRLSCAASGSTFQWYAIGWYRQAPGKERELVATISYTGGSRTYYADSVKGRFTISRDNAKNTVYLQMNILKPEDTAVYYCAAESNQLFYFRRFDYWGQGTQVTVSS | low polyreactivity |
| QVQLVESGGGLVQAGGSLRLSCAASGSTFQYNAMGWYRQAPGKERELVATITWSGGSTYYADSVKGRFTISRDNAKNTVYLQMNSLKPEDTAVYYCAADYYYGYEFGYWGQGTKVTVSS | low polyreactivity |
| QVQLVESGGGLVQAGGSLRLSCAASGSTFQYNVMGWYRQAPGKERELVATISYSSGRTYYADSVKGRFTISRDNAKNTVYLQMNSLKPEDTAVYYCAAAVRLYFWTSAYKYGYWGQGTQVTVSS | high polyreactivity |
| QVQLVESGGGLVQAGGSLRLSCAASGSTFQYYAMGWYRPAPGKERELVAAISSGGSTYYADSVMGRFTISRDNAKNTVYLQMNSLKPEDNAVYYCAAYDYDGVYGYCGQGTQVTVSS | high polyreactivity |
